Results from article PMC11482615, “Novel Peptides LFLLP and DFFL from Jack Bean Protein Hydrolysates Suppress the Inflammatory Response in Lipopolysaccharide-Stimulated RAW 264.7 Cells” (Foods, 2024).
Residues, ends and D or L forms follow the SMILES beside them. *: point of attachment. FITC = O=C1OC2(c3ccc(O)cc3Oc3cc(O)ccc32)c2ccc(NC(=S)*)cc21

Test system: RAW 264.7 cells
Test: Visualization of FITC-conjugated peptides in RAW 264.7 cells (fluorescence microscopy)
Type: cell-based, mouse
Settings: 200 μmol/L FITC-conjugated peptide, 24 h; for incorporation into RAW 264.7 cells (fluorescence signal): intensity of the two peptides roughly comparable; for cellular localization in RAW 264.7 cells: non-colocalization with DAPI
Protocol: To visualize the cellular localization of peptides, LFLLP and DFFL were conjugated with fluorescein isothiocyanate isomer-I (FITC-I, Dojindo). Briefly, the LFLLP and DFFL were mixed with FITC-I in a carbonate buffer at pH 9.5 for 2 h. To purify the FITC-conjugated peptides, the mixture was applied to a Sep-Pak C18 cartridge. RAW 264.7 cells were seeded in a 6-well plate (0.5 × 10^4 cells/cm^2). After 3 days, the cells were incubated with FITC-conjugated peptides (LFLLP and DFFL, 200 µmol/L) for 24 h. The cells were then washed with cold PBS and fixed with 4% PFA for 10 min. Lastly, the cells were washed three times with PBS and mounted on microscope slides using a mounting fluid containing DAPI, and the fluorescence signals were visualized using a Leica DMI6000 B fluorescence microscope (Leica).

Row | Structure (SMILES) | incorporation into RAW 264.7 cells (fluorescence signal) | cellular localization in RAW 264.7 cells
1 | CC(C)C[C@H](NC(=O)[C@H](Cc1ccccc1)NC(=O)[C@H](Cc1ccccc1)NC(=O)[C@H](CC(=O)O)NC(=S)Nc1ccc2c(c1)C(=O)OC21c2ccc(O)cc2Oc2cc(O)ccc21)C(=O)O [FITC-conjugated DFFL] ({FITC}-DFFL-OH) | observed in most cells | predominantly localized in the cytosols
2 | CC(C)C[C@H](NC(=O)[C@H](Cc1ccccc1)NC(=O)[C@H](CC(C)C)NC(=S)Nc1ccc2c(c1)C(=O)OC21c2ccc(O)cc2Oc2cc(O)ccc21)C(=O)N[C@@H](CC(C)C)C(=O)N1CCC[C@H]1C(=O)O [FITC-conjugated LFLLP] ({FITC}-LFLLP-OH) | observed in most cells | predominantly localized in the cytosols
